According to patent US20260242735A1 (UNIVERSIT T BASEL, published 2026):
One block for each binder: values may come before it.

Tests used:
Experiment in all cases: alanine scan, flow cytometry, HEK293-T;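 further: antibody binding to each alanine-substituted CD33 mutant expressed transiently in HEK293-T, read as fluorescence minus background, mean of duplicates, relative to wild-type CD33 set as 100%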
human CD33 S305A = human CD33 S305A (human, UniProt P20138 18-364)
human CD33 L277A = human CD33 L277A (human, UniProt P20138 18-364)
human CD33 L277A, sequence (P20138 18-364 L277A limits assumed): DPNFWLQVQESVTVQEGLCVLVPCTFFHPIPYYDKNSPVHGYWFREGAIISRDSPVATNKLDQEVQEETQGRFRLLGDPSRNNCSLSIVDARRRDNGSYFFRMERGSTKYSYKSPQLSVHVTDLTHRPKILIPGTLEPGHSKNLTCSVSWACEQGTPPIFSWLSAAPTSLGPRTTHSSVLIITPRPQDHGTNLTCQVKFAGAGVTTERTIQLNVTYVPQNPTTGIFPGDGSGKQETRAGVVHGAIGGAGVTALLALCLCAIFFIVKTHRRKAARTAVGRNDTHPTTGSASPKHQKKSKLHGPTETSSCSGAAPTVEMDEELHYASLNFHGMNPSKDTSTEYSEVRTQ

human CD33 D246A = human CD33 D246A (human, UniProt P20138 18-364)
human CD33 D246A, sequence (P20138 18-364 D246A limits assumed): as the sequence (P20138 18-364 L277A limits assumed) above, with D229A, A260L counted along it

human CD33 A265S = human CD33 A265S (human, UniProt P20138 18-364)
human CD33 A265S, sequence (P20138 18-364 A265S limits assumed): as the sequence (P20138 18-364 L277A limits assumed) above, with A248S, A260L counted along it

human CD33 H310A = human CD33 H310A (human, UniProt P20138 18-364)
human CD33 H310A, sequence (P20138 18-364 H310A limits assumed): as the sequence (P20138 18-364 L277A limits assumed) above, with A260L, H293A counted along it

human CD33 T292A = human CD33 T292A (human, UniProt P20138 18-364)
human CD33 T292A, sequence (P20138 18-364 T292A limits assumed): as the sequence (P20138 18-364 L277A limits assumed) above, with A260L, T275A counted along it

human CD33 L270A = human CD33 L270A (human, UniProt P20138 18-364)
human CD33 L270A, sequence (P20138 18-364 L270A limits assumed): as the sequence (P20138 18-364 L277A limits assumed) above, with L253A, A260L counted along it

human CD33 F243A = human CD33 F243A (human, UniProt P20138 18-364)
human CD33 F243A, sequence (P20138 18-364 F243A limits assumed): as the sequence (P20138 18-364 L277A limits assumed) above, with F226A, A260L counted along it

human CD33 I281A = human CD33 I281A (human, UniProt P20138 18-364)
human CD33 I281A, sequence (P20138 18-364 I281A limits assumed): as the sequence (P20138 18-364 L277A limits assumed) above, with A260L, I264A counted along it

human CD33 F280A = human CD33 F280A (human, UniProt P20138 18-364)
human CD33 F280A, sequence (P20138 18-364 F280A limits assumed): as the sequence (P20138 18-364 L277A limits assumed) above, with A260L, F263A counted along it

human CD33 A261S = human CD33 A261S (human, UniProt P20138 18-364)
human CD33 A261S, sequence (P20138 18-364 A261S limits assumed): as the sequence (P20138 18-364 L277A limits assumed) above, with A244S, A260L counted along it

human CD33 V267A = human CD33 V267A (human, UniProt P20138 18-364)
human CD33 V267A, sequence (P20138 18-364 V267A limits assumed): as the sequence (P20138 18-364 L277A limits assumed) above, with V250A, A260L counted along it

human CD33 G266A = human CD33 G266A (human, UniProt P20138 18-364)
human CD33 G266A, sequence (P20138 18-364 G266A limits assumed): as the sequence (P20138 18-364 L277A limits assumed) above, with G249A, A260L counted along it

human CD33 S307A = human CD33 S307A (human, UniProt P20138 18-364)
human CD33 S307A, sequence (P20138 18-364 S307A limits assumed): as the sequence (P20138 18-364 L277A limits assumed) above, with A260L, S290A counted along it

human CD33 K250A = human CD33 K250A (human, UniProt P20138 18-364)
human CD33 K250A, sequence (P20138 18-364 K250A limits assumed): as the sequence (P20138 18-364 L277A limits assumed) above, with K233A, A260L counted along it

human CD33 L275A = human CD33 L275A (human, UniProt P20138 18-364)
human CD33 L275A, sequence (P20138 18-364 L275A limits assumed): as the sequence (P20138 18-364 L277A limits assumed) above, with L258A, A260L counted along it

human CD33 Q311A = human CD33 Q311A (human, UniProt P20138 18-364)
human CD33 Q311A, sequence (P20138 18-364 Q311A limits assumed): as the sequence (P20138 18-364 L277A limits assumed) above, with A260L, Q294A counted along it

human CD33 T284A = human CD33 T284A (human, UniProt P20138 18-364)
human CD33 T284A, sequence (P20138 18-364 T284A limits assumed): as the sequence (P20138 18-364 L277A limits assumed) above, with A260L, T267A counted along it

human CD33 A290S = human CD33 A290S (human, UniProt P20138 18-364)
human CD33 A290S, sequence (P20138 18-364 A290S limits assumed): as the sequence (P20138 18-364 L277A limits assumed) above, with A260L, A273S counted along it

human CD33 S305A, sequence (P20138 18-364 S305A limits assumed): as the sequence (P20138 18-364 L277A limits assumed) above, with A260L, S288A counted along it

Mean % WT Binding (human CD33 S305A): 104 % WT binding
Mean % WT Binding (human CD33 L277A): 92.2 % WT binding
Mean % WT Binding (human CD33 D246A): 104 % WT binding
Mean % WT Binding (human CD33 A265S): 126 % WT binding
Mean % WT Binding (human CD33 H310A): 94.3 % WT binding
Mean % WT Binding (human CD33 T292A): 100 % WT binding
Mean % WT Binding (human CD33 L270A): 97.3 % WT binding
Mean % WT Binding (human CD33 F243A): 69.9 % WT binding
Mean % WT Binding (human CD33 I281A): 122 % WT binding
Mean % WT Binding (human CD33 F280A): 92.3 % WT binding
Mean % WT Binding (human CD33 A261S): 65.8 % WT binding
Mean % WT Binding (human CD33 V267A): 116 % WT binding
Mean % WT Binding (human CD33 G266A): 112 % WT binding
Mean % WT Binding (human CD33 S307A): 114 % WT binding
Mean % WT Binding (human CD33 K250A): 106 % WT binding
Mean % WT Binding (human CD33 L275A): 99.3 % WT binding
Mean % WT Binding (human CD33 Q311A): 102 % WT binding
Mean % WT Binding (human CD33 T284A): 111 % WT binding
Mean % WT Binding (human CD33 A290S): 107 % WT binding
B1: Refmab #4 (antibody, V domains shown)
VH: QVQLVQSGAEVKKPGESVKVSCKASGYTFTNYGMNWVKQAPGQGLEWMGWINTYTGEPTYADKFQGRVTMTTDTSTSTAYMEIRNLGGDDTAVYYCARWSWSDGYYVYFDYWGQGTSVTVSS
VL: DIVMTQSPDSLTVSLGERTTINCKSSQSVLDSSTNKNSLAWYQQKPGQPPKLLLSWASTRESGIPDRFSGSGSGTDFTLTIDSPQPEDSATYYCQQSAHFPITFGQGTRLEIK
notes: The alanine scan used IgG or Fab

Mean % WT Binding (human CD33 S305A): 103 % WT binding
Mean % WT Binding (human CD33 L277A): 81.9 % WT binding
Mean % WT Binding (human CD33 D246A): 115 % WT binding
Mean % WT Binding (human CD33 A265S): 92.4 % WT binding
Mean % WT Binding (human CD33 H310A): 101 % WT binding
Mean % WT Binding (human CD33 T292A): 99.6 % WT binding
Mean % WT Binding (human CD33 L270A): 125 % WT binding
Mean % WT Binding (human CD33 F243A): 107 % WT binding
Mean % WT Binding (human CD33 I281A): 91 % WT binding
Mean % WT Binding (human CD33 F280A): 99 % WT binding
Mean % WT Binding (human CD33 A261S): 121 % WT binding
Mean % WT Binding (human CD33 V267A): 106 % WT binding
Mean % WT Binding (human CD33 G266A): 97.8 % WT binding
Mean % WT Binding (human CD33 S307A): 60.1 % WT binding
Mean % WT Binding (human CD33 K250A): 146 % WT binding
Mean % WT Binding (human CD33 L275A): 123 % WT binding
Mean % WT Binding (human CD33 Q311A): 124 % WT binding
Mean % WT Binding (human CD33 T284A): 83.2 % WT binding
Mean % WT Binding (human CD33 A290S): 97.2 % WT binding
B2: Refmab #3 (antibody, V domains shown)
VH: QVQLVQSGAEVKKPGSSVKVSCKASGYTFTDYNMHWVRQAPGQGLEWIGYIYPYNGGTGYNQKFKSKATITADESTNTAYMELSSLRSEDTAVYYCARGRPAMDYWGQGTLVTVSS
VL: DIQMTQSPSSLSASVGDRVTITCRASESVDNYGISFMNWFQQKPGKAPKLLIYAASNQGSGVPSRFSGSGSGTDFTLTISSLQPDDFATYYCQQSKEVPWTFGQGTKVEIK
notes: as for B1
